Experimental data as given in patent publication CN113234158A (FUZHOU MAIXIN BIOTECHNOLOGY DEV CO LTD, dated 2021).

Molecular target: T1, TIM3蛋白 (T细胞免疫球蛋白黏液素3) (human, UniProt Q8TDQ0 22-301)
T1 construct: whole, on cells; Endogenous TIM3 in paraffin tissue sections (immunohistochemistry); Species 'human' comes from the abstract; also called T cell immunoglobulin and mucin-3
T1 sequence (looked up): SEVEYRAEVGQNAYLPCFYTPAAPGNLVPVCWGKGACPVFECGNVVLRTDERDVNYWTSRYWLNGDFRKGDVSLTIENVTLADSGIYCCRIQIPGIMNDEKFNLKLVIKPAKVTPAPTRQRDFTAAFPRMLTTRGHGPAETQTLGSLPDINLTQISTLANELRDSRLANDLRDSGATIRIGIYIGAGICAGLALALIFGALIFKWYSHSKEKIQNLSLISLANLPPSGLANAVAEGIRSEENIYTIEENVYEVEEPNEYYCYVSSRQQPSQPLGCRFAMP
Test: immunohistochemistry on tonsil and appendix tissue chips

B1: 抗TIM3蛋白单克隆抗体 (小鼠杂交瘤细胞株7H2分泌, CGMCC NO 20763) (antibody, V domains shown)
VH: QVQLQESGGDLVKTGGSLKLSCVASGFTFRRYTMSWVRQTPAKRLEWVATIGSGGGDTYYPDTVKGRFTISRDNARSTLFLQMNSLRSEDTARYYCARSSYYYDVDLYYYSMDYWGQGTSVTVSS
VL: DILMTQTPLSLSASLGDRVTISCRASQDIRNCLNWYQQKPDGTVKLLIYYTSTLQSGVPSRFSGSGSGTDYSLTISNLEAEDIATYTCQQYSKIPRTFGGGTTLEIK
notes: also called TIM3(7H2); 本抗体
B1: binds.
